Legend:
Assay in all cases: holdup assay
Parameters in all cases: key: below the threshold = too weak to quantify, mostly under pKd 3.1 to 4
LNX1_3, Q8TBB1 = target: LNX1_3, Q8TBB1
SNX27, Q96L92 = target: SNX27, Q96L92
PTPN13_1, Q12923 = target: T1, PTPN13_1, Q12923
T1 sequence (Q12923 1088-1188, limits assumed, looked up): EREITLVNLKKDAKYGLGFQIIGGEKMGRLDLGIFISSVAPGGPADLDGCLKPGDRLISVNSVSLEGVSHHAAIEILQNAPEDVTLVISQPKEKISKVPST

LIMK2, P53671 = target: LIMK2, P53671
MAGI1_2, Q96QZ7 = target: MAGI1_2, Q96QZ7
Chain of MAGI1_2, Q96QZ7 (Q96QZ7 456-580): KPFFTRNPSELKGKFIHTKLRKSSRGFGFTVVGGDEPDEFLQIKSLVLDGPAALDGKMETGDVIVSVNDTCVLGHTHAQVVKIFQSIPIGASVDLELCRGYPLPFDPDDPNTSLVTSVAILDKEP

NOS1, P29475 = target: NOS1, P29475
Chain of NOS1, P29475 (P29475 9-101): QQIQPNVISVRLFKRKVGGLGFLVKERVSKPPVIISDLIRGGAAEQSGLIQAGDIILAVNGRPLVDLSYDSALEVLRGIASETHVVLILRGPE

NHERF4_2, Q86UT5 = target: NHERF4_2, Q86UT5
Chain of NHERF4_2, Q86UT5 (Q86UT5 220-308): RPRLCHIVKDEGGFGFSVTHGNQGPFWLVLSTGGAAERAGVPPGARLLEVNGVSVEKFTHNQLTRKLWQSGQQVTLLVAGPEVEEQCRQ

PDZD2_2, O15018 = target: T2, PDZD2_2, O15018
T2 sequence (O15018 329-429, limits assumed, looked up): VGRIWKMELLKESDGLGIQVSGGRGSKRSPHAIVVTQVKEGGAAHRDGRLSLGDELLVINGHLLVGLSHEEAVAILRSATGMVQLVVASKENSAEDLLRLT

GRID2IP_2, A4D2P6 = target: GRID2IP_2, A4D2P6
Chain of GRID2IP_2, A4D2P6 (A4D2P6 272-370): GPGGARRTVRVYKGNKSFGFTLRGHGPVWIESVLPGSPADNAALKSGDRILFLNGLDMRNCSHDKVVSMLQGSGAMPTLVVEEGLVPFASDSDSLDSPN

LNX2_2, Q8N448 = target: T3, LNX2_2, Q8N448
T3 sequence (Q8N448 334-432, limits assumed, looked up): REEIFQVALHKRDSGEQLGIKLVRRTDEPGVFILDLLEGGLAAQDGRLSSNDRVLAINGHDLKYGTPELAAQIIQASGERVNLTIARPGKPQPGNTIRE

DLG5_1, Q8TDM6 = target: DLG5_1, Q8TDM6
Chain of DLG5_1, Q8TDM6 (Q8TDM6 617-713): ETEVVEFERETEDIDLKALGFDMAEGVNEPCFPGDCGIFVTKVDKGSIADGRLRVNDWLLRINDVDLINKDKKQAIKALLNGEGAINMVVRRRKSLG

GRIP2_6, Q9C0E4 = target: GRIP2_6, Q9C0E4
Chain of GRIP2_6, Q9C0E4 (Q9C0E4 648-740): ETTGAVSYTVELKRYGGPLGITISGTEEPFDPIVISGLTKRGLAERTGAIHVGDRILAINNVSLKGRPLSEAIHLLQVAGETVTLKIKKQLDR

LNX2_3, Q8N448 = target: T4, LNX2_3, Q8N448
T4 sequence (Q8N448 463-564, limits assumed, looked up): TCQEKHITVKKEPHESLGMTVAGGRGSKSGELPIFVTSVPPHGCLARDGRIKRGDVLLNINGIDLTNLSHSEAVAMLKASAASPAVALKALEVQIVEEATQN

RAPGEF6, Q8TEU7 = target: T5, RAPGEF6, Q8TEU7
T5 sequence (Q8TEU7 525-625, limits assumed, looked up): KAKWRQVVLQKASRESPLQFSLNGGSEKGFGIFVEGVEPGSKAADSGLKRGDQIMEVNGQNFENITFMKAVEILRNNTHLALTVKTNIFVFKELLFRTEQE

PDZRN3_1, Q9UPQ7 = target: T6, PDZRN3_1, Q9UPQ7
T6 sequence (Q9UPQ7 244-349, limits assumed, looked up): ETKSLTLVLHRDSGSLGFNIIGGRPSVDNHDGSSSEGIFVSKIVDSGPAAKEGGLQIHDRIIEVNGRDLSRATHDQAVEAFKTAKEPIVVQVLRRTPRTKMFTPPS

GORASP1, Q9BQQ3 = target: GORASP1, Q9BQQ3
Chain of GORASP1, Q9BQQ3 (Q9BQQ3 1-208): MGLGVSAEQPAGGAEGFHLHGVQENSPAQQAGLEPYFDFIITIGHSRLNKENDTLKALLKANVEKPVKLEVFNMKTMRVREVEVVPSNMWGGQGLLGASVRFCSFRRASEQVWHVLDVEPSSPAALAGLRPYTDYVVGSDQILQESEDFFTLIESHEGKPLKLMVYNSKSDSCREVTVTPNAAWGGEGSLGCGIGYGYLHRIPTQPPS

DVL3, Q92997 = target: T7, DVL3, Q92997
T7 sequence (Q92997 244-331, limits assumed, looked up): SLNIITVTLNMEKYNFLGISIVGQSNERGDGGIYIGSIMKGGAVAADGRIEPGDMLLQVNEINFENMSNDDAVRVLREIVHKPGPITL

GRIP2_3, Q9C0E4 = target: GRIP2_3, Q9C0E4
Chain of GRIP2_3, Q9C0E4 (Q9C0E4 238-339): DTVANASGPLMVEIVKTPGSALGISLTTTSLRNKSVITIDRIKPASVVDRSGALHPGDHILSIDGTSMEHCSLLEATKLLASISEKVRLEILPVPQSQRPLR

GRIP1_4, Q9Y3R0 = target: T8, GRIP1_4, Q9Y3R0
T8 sequence (Q9Y3R0 467-571, limits assumed, looked up): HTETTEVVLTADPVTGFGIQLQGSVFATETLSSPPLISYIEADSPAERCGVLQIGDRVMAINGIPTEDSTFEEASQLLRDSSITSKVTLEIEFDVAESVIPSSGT

HTRA4, P83105 = target: T9, HTRA4, P83105
T9 sequence (P83105 378-476, limits assumed, looked up): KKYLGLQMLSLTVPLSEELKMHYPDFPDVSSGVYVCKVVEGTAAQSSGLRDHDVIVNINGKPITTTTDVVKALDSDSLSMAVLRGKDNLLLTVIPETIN

MAGI2_5, Q86UL8 = target: MAGI2_5, Q86UL8
Chain of MAGI2_5, Q86UL8 (Q86UL8 915-1017): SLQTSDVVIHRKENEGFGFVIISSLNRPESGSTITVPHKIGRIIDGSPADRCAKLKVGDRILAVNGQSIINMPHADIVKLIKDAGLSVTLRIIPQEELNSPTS

FRMPD1, Q5SYB0 = target: T10, FRMPD1, Q5SYB0
T10 sequence (Q5SYB0 52-145, limits assumed, looked up): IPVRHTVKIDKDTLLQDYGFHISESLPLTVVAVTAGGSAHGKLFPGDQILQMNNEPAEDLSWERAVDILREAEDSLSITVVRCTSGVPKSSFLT

Inadl_3, Q8NI35 = target: Inadl_3, Q8NI35
Chain of Inadl_3, Q8NI35 (Q8NI35 359-469): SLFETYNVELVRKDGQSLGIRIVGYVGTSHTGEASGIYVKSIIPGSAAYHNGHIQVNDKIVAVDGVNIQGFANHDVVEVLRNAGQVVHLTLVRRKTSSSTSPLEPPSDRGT

ARHGEF11, O15085 = target: T11, ARHGEF11, O15085
T11 sequence (O15085 42-136, limits assumed, looked up): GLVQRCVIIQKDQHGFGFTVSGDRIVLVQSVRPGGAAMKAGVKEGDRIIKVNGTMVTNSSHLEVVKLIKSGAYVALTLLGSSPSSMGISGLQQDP

CARD11, Q9BXL7 = target: T12, CARD11, Q9BXL7
T12 sequence (Q9BXL7 662-765, limits assumed, looked up): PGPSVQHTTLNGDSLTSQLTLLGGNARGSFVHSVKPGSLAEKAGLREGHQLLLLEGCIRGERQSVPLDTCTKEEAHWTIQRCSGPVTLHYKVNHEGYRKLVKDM

PARD3_3, Q8TEW0 = target: PARD3_3, Q8TEW0
Chain of PARD3_3, Q8TEW0 (Q8TEW0 582-685): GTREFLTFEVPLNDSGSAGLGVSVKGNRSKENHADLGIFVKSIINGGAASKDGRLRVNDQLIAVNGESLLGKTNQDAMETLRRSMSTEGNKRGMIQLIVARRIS

[1] = plain residues with an end cap or a label only (N-terminal biotin on a linker: (peg)3)
[2] = plain residues with an end cap or a label only (N-terminal biotin on a linker: ado-ado)
[3] = plain residues with an end cap or a label only (N-terminal biotin on a linker: ahx)

Chain of LIMK2, P53671 (P53671 143-248): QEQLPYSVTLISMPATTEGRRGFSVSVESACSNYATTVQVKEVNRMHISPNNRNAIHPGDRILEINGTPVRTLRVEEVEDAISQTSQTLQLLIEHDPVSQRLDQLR
Chain of LNX1_3, Q8TBB1 (Q8TBB1 500-596): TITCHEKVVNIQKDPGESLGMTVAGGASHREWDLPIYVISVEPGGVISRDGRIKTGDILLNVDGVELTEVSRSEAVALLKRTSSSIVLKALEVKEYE

B1: HBV-HBc, P03193 (peptide)
chain: RRRRSQSRESQC
pKd (LNX1_3, Q8TBB1; [1]): below the threshold | pKd (SNX27, Q96L92; [1]): 4.76 | pKd (PTPN13_1, Q12923; [1]): below the threshold | pKd (LIMK2, P53671; [1]): below the threshold | pKd (MAGI1_2, Q96QZ7; [1]): 4.07 | pKd (NOS1, P29475; [1]): below the threshold | pKd (NHERF4_2, Q86UT5; [1]): below the threshold | pKd (PDZD2_2, O15018; [1]): 3.88 | pKd (GRID2IP_2, A4D2P6; [1]): below the threshold | pKd (LNX2_2, Q8N448; [1]): below the threshold | pKd (DLG5_1, Q8TDM6; [1]): below the threshold | pKd (GRIP2_6, Q9C0E4; [1]): below the threshold | pKd (LNX2_3, Q8N448; [1]): below the threshold | pKd (RAPGEF6, Q8TEU7; [1]): below the threshold | pKd (PDZRN3_1, Q9UPQ7; [1]): 3.89 | pKd (GORASP1, Q9BQQ3; [1]): below the threshold | pKd (DVL3, Q92997; [1]): below the threshold | pKd (GRIP2_3, Q9C0E4; [1]): below the threshold | pKd (GRIP1_4, Q9Y3R0; [1]): below the threshold | pKd (HTRA4, P83105; [1]): below the threshold | pKd (MAGI2_5, Q86UL8; [1]): 3.89 | pKd (FRMPD1, Q5SYB0; [1]): below the threshold | pKd (Inadl_3, Q8NI35; [1]): below the threshold | pKd (ARHGEF11, O15085; [1]): below the threshold | pKd (CARD11, Q9BXL7; [1]): below the threshold | pKd (PARD3_3, Q8TEW0; [1]): below the threshold

B2: PTGIR, P43119 (peptide)
chain: AEASVACSLC
pKd (LNX1_3, Q8TBB1; [2]): below the threshold | pKd (SNX27, Q96L92; [2]): 4.4 | pKd (PTPN13_1, Q12923; [2]): below the threshold | pKd (LIMK2, P53671; [2]): below the threshold | pKd (MAGI1_2, Q96QZ7; [2]): below the threshold | pKd (NOS1, P29475; [2]): below the threshold | pKd (NHERF4_2, Q86UT5; [2]): below the threshold | pKd (PDZD2_2, O15018; [2]): 4.29 | pKd (GRID2IP_2, A4D2P6; [2]): 3.77 | pKd (LNX2_2, Q8N448; [2]): 3.78 | pKd (DLG5_1, Q8TDM6; [2]): below the threshold | pKd (GRIP2_6, Q9C0E4; [2]): below the threshold | pKd (LNX2_3, Q8N448; [2]): below the threshold | pKd (RAPGEF6, Q8TEU7; [2]): below the threshold | pKd (PDZRN3_1, Q9UPQ7; [2]): below the threshold | pKd (GORASP1, Q9BQQ3; [2]): below the threshold | pKd (DVL3, Q92997; [2]): below the threshold | pKd (GRIP2_3, Q9C0E4; [2]): below the threshold | pKd (GRIP1_4, Q9Y3R0; [2]): below the threshold | pKd (HTRA4, P83105; [2]): below the threshold | pKd (MAGI2_5, Q86UL8; [2]): 4.98 | pKd (FRMPD1, Q5SYB0; [2]): below the threshold | pKd (Inadl_3, Q8NI35; [2]): below the threshold | pKd (ARHGEF11, O15085; [2]): below the threshold | pKd (CARD11, Q9BXL7; [2]): below the threshold | pKd (PARD3_3, Q8TEW0; [2]): below the threshold

B3: FRMPD1, Q5SYB0 (peptide)
chain: TQKFRASTAL
pKd (LNX1_3, Q8TBB1; [3]): below the threshold | pKd (SNX27, Q96L92; [3]): 4.03 | pKd (PTPN13_1, Q12923; [3]): below the threshold | pKd (LIMK2, P53671; [3]): below the threshold | pKd (MAGI1_2, Q96QZ7; [3]): 4.97 | pKd (NOS1, P29475; [3]): 3.72 | pKd (NHERF4_2, Q86UT5; [3]): below the threshold | pKd (PDZD2_2, O15018; [3]): below the threshold | pKd (GRID2IP_2, A4D2P6; [3]): 4.18 | pKd (LNX2_2, Q8N448; [3]): below the threshold | pKd (DLG5_1, Q8TDM6; [3]): below the threshold | pKd (GRIP2_6, Q9C0E4; [3]): below the threshold | pKd (LNX2_3, Q8N448; [3]): below the threshold | pKd (RAPGEF6, Q8TEU7; [3]): below the threshold | pKd (PDZRN3_1, Q9UPQ7; [3]): 4.16 | pKd (GORASP1, Q9BQQ3; [3]): 3.51 | pKd (DVL3, Q92997; [3]): below the threshold | pKd (GRIP2_3, Q9C0E4; [3]): below the threshold | pKd (GRIP1_4, Q9Y3R0; [3]): below the threshold | pKd (HTRA4, P83105; [3]): below the threshold | pKd (MAGI2_5, Q86UL8; [3]): 3.59 | pKd (FRMPD1, Q5SYB0; [3]): below the threshold | pKd (Inadl_3, Q8NI35; [3]): below the threshold | pKd (ARHGEF11, O15085; [3]): 4.38 | pKd (CARD11, Q9BXL7; [3]): below the threshold | pKd (PARD3_3, Q8TEW0; [3]): below the threshold

B4: CACNG2, Q9Y698 (peptide)
chain: NTANRRTTPV
pKd (LNX1_3, Q8TBB1; [2]): below the threshold | pKd (SNX27, Q96L92; [2]): 4.99 | pKd (PTPN13_1, Q12923; [2]): below the threshold | pKd (LIMK2, P53671; [2]): below the threshold | pKd (MAGI1_2, Q96QZ7; [2]): 4.72 | pKd (NOS1, P29475; [2]): 3.99 | pKd (NHERF4_2, Q86UT5; [2]): below the threshold | pKd (PDZD2_2, O15018; [2]): 3.66 | pKd (GRID2IP_2, A4D2P6; [2]): 3.89 | pKd (LNX2_2, Q8N448; [2]): below the threshold | pKd (DLG5_1, Q8TDM6; [2]): below the threshold | pKd (GRIP2_6, Q9C0E4; [2]): below the threshold | pKd (LNX2_3, Q8N448; [2]): below the threshold | pKd (RAPGEF6, Q8TEU7; [2]): below the threshold | pKd (PDZRN3_1, Q9UPQ7; [2]): 4.23 | pKd (GORASP1, Q9BQQ3; [2]): below the threshold | pKd (DVL3, Q92997; [2]): below the threshold | pKd (GRIP2_3, Q9C0E4; [2]): below the threshold | pKd (GRIP1_4, Q9Y3R0; [2]): below the threshold | pKd (HTRA4, P83105; [2]): below the threshold | pKd (MAGI2_5, Q86UL8; [2]): below the threshold | pKd (FRMPD1, Q5SYB0; [2]): below the threshold | pKd (Inadl_3, Q8NI35; [2]): below the threshold | pKd (ARHGEF11, O15085; [2]): 3.83 | pKd (CARD11, Q9BXL7; [2]): below the threshold | pKd (PARD3_3, Q8TEW0; [2]): below the threshold

— PMC9482650, “Quantitative fragmentomics allow affinity mapping of interactomes” (Nature Communications, 2022)
